Results reported in PMC3195437 (Biochemical Journal, 2011).

Biological target: the molecule itself
Assay: SEC

Protein	stoichiometry N
rHtrASA (recombinant, N-terminally truncated, proteolytically inactive HtrA of Synechocystis sp. PCC 6803, Ser296 replaced by alanine) (enzyme, UniProt P73354 94-452, looked up) SIAPANESLATNLQSRLSPREPSNFVVDVVESTGPAVVRINAQKTVKSQVPQAFNDPFLQRFFGSQMPPMPNERVQRGTGSGFIVSNDGKIFTNAHVVDGADEVTVTLKDGRSFPGRVMGSDPSTDVAVVKIEAGDLPTVALGDSDHLQVGEWAIAIGNPLGLDNTVTTGILSATGRRSADIGVPDKRVEFIQTDAAINPGNAGGPLLNADGQVIGMNTAIIQNAQGIGFAIPINKAQEIAQQLIATGKVEHAYLGIQMVTMTPELQSQIRQETGMNIPVDKGVVIMQVMPNSPAAIAKLEQGDVLQSLQGQPVENAEQVQSLVGKLAVGDEVELGILRNGQQQNLTVTIGALPSAPPQ	3
rHhoBSA (recombinant, N-terminally truncated, proteolytically inactive HhoB of Synechocystis sp. PCC 6803, Ser258 replaced by alanine) (enzyme, UniProt P73940 51-416, looked up) SLTPAPVESNYRSALPLTLPRSAQDDQELNFIARAVQKIGPAVVRIDSERTAVSQGGPMGDQPFFRRFFGEEMPPNPDPREQGTGSGFILSSDGEVLTNAHVVEGASTVKVTLKDGSVLEGKVMGIDTMTDVAVVKVEAENLPVVEIGQSDRLQPGEWAIAIGNPLGLDNTVTVGIISALGRSSSEVGVPDKRVRFIQTDAAINPGNAGGPLLNAKGEVIGVNTAIRADAQGLGFAIPIQTAQNVAENLFTKGKMEHPYLGIHMVTLTPEMTKQLRTSGELPAGVTADTGVLIIQVSPGSPAAQAGLAPGDIILEVGGMGVKTATDVQERVEVSQIGEPLAIAVKRGQKPQMMAVRPGPFPEDLGQ	3
